# Test results reported in the DeepSol protein solubility set.
# Assay: soluble on expression in E. coli; label from the status in PepcDB or PDB records
row,Sequence,soluble on expression in E. coli
1,MSLISPIIRLSHVTFQTSSAARVIKEFVTKYQFHPFAARGLDGGSPCQVALKNGGVVFMVNENTPKTHENSVLLYDFPLQIPFPDTACNVTFEVEDVSGLYHHLVDEGCQLLLPPTELHDDFGSVTYCIVKSVVGNVSHTLIDRTHYRSSFLPGFEYLKNSTHNLSSGNMTHVDHIAYTCPRGTSPSILEWYRRCFGFQHFPLSKGEDPERGFEIIGPRIGLRLTSLVCPKLSKECKLVLAESLPQEGINQVDEFMQQHTGGGIQHIGLSTPDIFKAAEDLSKLGVCFAIQPSSYYSETKKQKEIYSVGLEPQMLAQFGILMDSATDDILSNDAPKKFLLQVFAEPLFSKNSAFLELIERRSAEGFGEGNIRALWRSMQDLQEDQTVKEQEGEGHHHHHH,soluble
2,VFQSILDEIDVGLHVVDEHGNTIVYNNKMMQIEDMEKHDVLNKNLMDVFMFSKQQDSTLVQALQEGKTIKNVKQSYFNNKGQEITTINHTYPIVQDGKIRGAVEIAKDVT,not soluble
3,MFQIIMTSTPKYSIILPTYNEKENLPICIWLIENYLKEVSHEVIIVDDASPDGTQGIAKLLQKEYGDDKILIKPRVGKLGLGTAYSHGLSFARGEFIILMDADLSHHPKFIPEMIALQHKYKLDIVTGTRYKDGGGVSGWDLKRKTISKGANFLAQFLLNPGVSDLTGSFRLYKRDILSKLIAESVSKGYVFQMEMMFRAKKSGYRIGEVPISFVDRFFGESKLGSQEIVDYAKGLLYLFAFVW,not soluble
4,MRALRLVTSESVTEGHPDKLADRISDAILDALIAQDKKARVAAETLVTTGLVFVAGEITTEGYVDIPNLVRKTVREVGYTRAKYGFDADTCAVLTAIDEQSPDIAGGVNLSYEWRVLKSTDPLDRVGAGDQGLMFGYATDETPELMPLPITLAHRLTMRLAEVRKTGLLPYLRPDGKAQVTVVYEGDKPLYVKTVVVSAQHSPEVEQEQLREDLIREVVRQAIPPEYLKDGETEYLINPSGRFILGGPHADTGLTGRKIIVDTYGGAVPHGGGAFSGKDPTKVDRSASYYARYMAKNIVAAGLARRALVELAYAIGKARPVSLRVETFGTGVLPDEKLTEIAKKVFDPRPLAIIEELDLLRPIYTPTSAYGHFGRPGFPWEETDRVEALRREAGL,soluble
5,MGPLWLDVAGYELSAEDRAILAHPTVGGVILFGRNYHDNQQLLALNKAIRQAAARPILIGVDQEGGRVQRFREGFSRIPPAQYYARAENGVELAEQGGWLMAAELIAHDVDLSFAPVLDMGFACKAIGNRAFGEDVQTVLKHSSAFLRGMKAVGMATTGKHFPGHGAVIADSHLETPYDERETIAQDMAIFRAQIEAGVLDAMMPAHVVYPHYDAQPASGSSYWLKQVLREELGFKGIVFSDDLSMEGAAVMGGPVERSHQALVAGCDMILICNKREAAVEVLDNLPIMEVPQAEALLKKQQFSYSELKRLERWQQASANMQRLIEQFSEHHHHHHHHHH,soluble
6,MPEHLNARVEACYRQAEHFFQRSFPRPTVSFRLRGQKAGVAHLDENLLRFNPQLYRENREHFLEQTVAHEVAHLIAHQLFGPRIRPHGEEWQLIMRGIYGLPPDRCHTYAVKRRATTRYLYRCHCPEHNDFPFSPQRHTLVAKGRRYYCRRCKATLVFTGEVLRELEHHHHHH,soluble
7,MSLSQFKPTWMVKNIYDLTPAQLRANGIKVILTDLDNTLIAWNNPDGTPELRHWLTLLELAGIRVIVVSNNNRKRVDRAVAPFNLDYIHRALKPLSWGILRALRRWHLNRDEVVMVGDQLLTDVWAAHHSGVRSVLVKPILKSDAWVTKGNRLMEKVVMWRLRHNYPELTWQEDLDERKAHEGHHHHHH,soluble
8,MGSDKIHHHHHHMFKESPIIRRVSRQIMVGNVPVGGDAPITVQSMTNTLTTDVAATVAQIKALEAVGADIVRVSVPTMDAAEAFREIKKQVNVPLVADIHFDYRIALKVAEYGVDCLRINPGNIGNENRIRSVVECARDNNIPIRIGVNGGSLEKDIQEKYTEPTPEALLESAMRHVDILDRLNFNEFKVSVKASDVFLAVESYKLLAKQIDNPLHLGITEAGGLRSGSVKSSVGLGLLLAQGIGDTIRISLAADPIEEIKVGFDILKSLKLRSRGINLIACPSCSRQEFDVVSTVNALEQRIEDIMTPMDVSIIGCIVNGPGEAMVSDLGLTGSSKKSGYYLDGIRQKERFDNTDLVDQLEQRIRAKARSMSERLDEKNKIDILTKD,not soluble
9,MGSDKIHHHHHHMSNFGRQIEAFRAVMLTGGMTTAAETLRITQPAISRLIRDLEDDLKIALFHRRGNQITPTVEATAFLAEVERSYLGMDQLRTFAVDLRNSLTGSLRIAALPAMALGFMPYCLAKFSGTRPKLSITLDGIPSHLVLERVAGGQFELGFAAVPADRPMLNTTPIKARAVVVMPEGHPLAKNETVSADQLRNERIVMLDRGNYLRHTIERALGTRAGSPGAIETPLSAIACSFVARGLGVTIIDAFTAINFLGRGIEARLLVPELDFGFAMVTAQQRPMSQLARQFAQEIHLLAEEYQSPIFG,not soluble
10,MGSDKIHHHHHHMSETELRKRQAQFTRELHGDDIGKKTGLSALMSKNNSAQKEAVQKYLRNWDGRTDKDAEERRLEDYNEATHSYYNVVTDFYEYGWGSSFHFSRFYKGESFAASIARHEHYLAYKAGIQRGDLVLDVGCGVGGPAREIARFTGCNVIGLNNNDYQIAKAKYYAKKYNLSDQMDFVKGDFMKMDFEENTFDKVYAIEATCHAPKLEGVYSEIYKVLKPGGTFAVYEWVMTDKYDENNPEHRKIAYEIELGDGIPKMFHVDVARKALKNCGFEVLVSEDLADNDDEIPWYYPLTGEWKYVQNLANLATFFRTSYLGRQFTTAMVTVMEKLGLAPEGSKEVTAALENAAVGLVAGGKSKLFTPMMLFVARKPENAETPSQTSQEATQ,not soluble
11,MSSLGASFVQIKFDDLQFFENCGGGSFGSVYRAKWISQDKEVAVKKLLKIEKEAEILSVLSHRNIIQFYGVILEPPNYGIVTEYASLGSLYDYINSNRSEEMDMDHIMTWATDVAKGMHYLHMEAPVKVIHRDLKSRNVVIAADGVLKICDFGASRFHNHTTHMSLVGTFPWMAPEVIQSLPVSETCDTYSYGVVLWEMLTREVPFKGLEGLQVAWLVVEKNERLTIPSSCPRSFAELLHQCWEADAKKRPSFKQIISILESMSNDTSLPDKCNSFLHNKAEWRCEIEATLERLKKLERDLSFKEQELKERERRLKMWEQKLTEQSNTPLLLPLAARMSEESYFESKTEESNSAEMSCQITATSNGEGHGMNPSLQAMMLMGFGDIFSMNKAGAVMHSGMQINMQAKQNSSKTTSKRRGKKVNMALGFSDFDLSEGDDDDDDDGEEEDNDMDNSE,soluble
12,VHNAGRMVVMKSRPLGEAEAVLDPSSATVDDFSISRGGDTIAYVKMGPTSPPDIYIYRDDNEYRLTDHNAWFAESRSLAEPVRLQVQSPLGGSIDAWILLPPDAGECSGCLPWILYIHGGPKTSYGYAFIHEFQMLASQGFAVIYSNPRGSDGYSEEFADLRGRYGVDDYSELMKVVDEALSDFPQLDPQRGGVTGGSYGGYMTNVIVTKTRRFKAAVTQRSCSNWISFYGESDIGWYFAPELISAQEPWRDLEKYVDFSPLFSVENIETPLLIIHSTEDFRCPLSGAIQLFTALKLKGVETRLLVFPGENHNLSRSGTPKRRVARLRAIASWFKEHLG,not soluble
13,MGSDKIHHHHHHMKSRFLLKIFIFLAVFGVDSVRAADCTEKTFKTGTVCVCSLDSCDEIPPLDITMGQAALYTTSHTGARLHRDVIYATDTEPFGTLHMTIDSSKKYQTIQGFGSTFSDASGANLKSLPDKLSDLIMKQYFSDTGLNLQFGRVPIASTDFSGRVYSYNDVANDYSMQNFNLTKEDFQWKIPYIKNAQKYNPNLKLFAAPWAAPGWLKTTKEMTGPGALNGKAGDNYHQAYAKYFVRFLEEYGKSGISFWGLSTQNQPTLGSDKKNKIQSTLFTAETQRDFIKTDLGPALAASSSGKDVKLLILDDNRGNLPKWADTVLNDMDAAKYVGGIGVHAYQDGETDNHLDETHKKHPNFFILGTEASEGYGSKDTHVDYGNWDRAADTASDILDNMNNWMTGWTERNLILDALGGPSWVSDYTDAPVIAFPAMAQFYKQPMFYAIAHFSHFIKPGAVRIDHSLNVIELEVETTAFLNPDGSKVIVMLNKGSLVSTEHTVVVQDAADSRNHYHFTLPHRAITTLYIQTSQF,not soluble
14,MVGLSTGSWVKVLTSMPNLESITVVELNPAYVQLASSYPAMADLLKDNRVNIITDDGRRWLNKNPDQKFDLILMNTTFHWRNYATNLLSQQFLTVTKQHLTDNGFIYFNTTDALDAYKTSQAVFPHVYAYENMSLASLKPIAVPTTPEVHRALANLKWHDGRHIFNSPAEIAEGTARIVNTPLIPYKDIDFSPLKRPAKIITDTNMITEYKYGRLNTVINK,not soluble
15,MGTEFNGLFDEWAHTYDSFVQGEDIQYKEVFAHYEDILEDVVNKSFGNVLEFGVGTGNLTNKLLLAGRTVYGIEPSREMRMIAKEKLPKEFSITEGDFLSFEVPTSIDTIVSTYAFHHLTDDEKNVAIAKYSQLLNKGGKIVFADTIFADQDAYDKTVEAAKQRGFHQLANDLQTEYYTRIPVMQTIFENNGFHVTFTRLNHFVWVMEATKQLEHHHHHH,soluble
16,MAKVLVLNASYEPLNITHWQRAVVLLLKDKAEALENNGKLIYANFPLPSVIRLRQYIKVPYKEIPLTRRNVLERDRHTCQYCNYKGEQLTLDHVIPRSRGGGDSWENLVTACVRCNIKKGNRTPREAQMSLNYTPRRPYSSLLFEIIKHTRNDRNHEWRKYVIGILEHHHHHH,not soluble
17,MGSDKIHHHHHHMRISANFDGGNIETISLANPDDIQLAIRPDAGGEFYQWFNFRFEATIGKTYTLNILNAGGASYLKGWEDYQAVASYDRQTWFRLPTEYKDGKLSISVELDCEAIQIAYFTPYSYERHLDLISAVQLHPLVSTEHLGLTLDGRDMTLVKVGDDDPSKKSIWITARQHPGETMAEWLVEGLLNQLLDNDCPTSKALLDKANFYIVPNMNPDGSVRGHLRTNAVGANLNREWQTPSLERSPEVYYVVNKMHETGVDLFYDVHGDEGLPYVFLAGCEGIPNYSDKLASLQQDFVAALSLASADFQTEFGYDKDEPGKANLTVACNWVANTFKCLSNTLEMPFKDNANLADPFQGWSPERSVYFGEASLIAMRAVIDKIGQ,not soluble
18,MDVENEQILNVNPADPDNLSDSLFSGDEENAGTEEVKNEINGNWISAYSINEARINAKAKRRLRKNSSRDSGRGDSVSDSGSDALRSGLTVPTSPKGRLLDRRSRSGKGRGLPKKGGAGGKGVWGTPGQVYDVEEVDVKDPNYDDDQENCVYETVVLPLDERAFEKTLTPIIQEYFEHGDTNEVAEMLRDLNLGEMKSGVPVLAVSLALEGKASHREMTSKLLSDLCGTVMSTTDVEKSFDKLLKDLPELALDTPRAPQLVGQFIARAVGDGILCNTYIDSYKGTVDCVQARAALDKATVLLSMSKGGKRKDSVWGSGGGQQSVNHLVKEIDMLLKEYLLSGDISEAEHCLKELEVPHFHHELVYEAIIMVLESTGESTFKMILDLLKSLWKSSTITVDQMKRGYERIYNEIPDINLDVPHSYSVLERFVEECFQAGIISKQLRDLCPSRGRKRFVSEGDGGRLKPESY,soluble
19,MAIERIQLHTHGDDRGLLISLEQQRNVPFEIRRVYYIFGTRQGVHRGQHAHRQLNQLAVALHGSVTLLLDEGQGQGPEEVVLDDPSQGVLLGRMVWRDLHQFSEDCVLMVLADQYYDPGDYILDYDEFLTEARGVSRLEALEHHHHHH,soluble
20,MEHREALIALRTFLSTQILGQEKLIERLLIALLADGHMLVEGAPGLAKTKAIKELAEGIEAQFHRIQFTPDLLPADITGTEIYRPETGSFVFQQGPIFHNLVLADEINRAPAKVQSALLEAMAERQVSVGRSTYDLSPLFLVMATQNPIEQEGTYPLPEAQLDRFLMHVKIGFPDAAVERKILQQARGEALNGETKPERRVSQQAIFAARKEILGLYMADAVEEYLVQLVMATRTPAKFDPELAEWIAYGASPRGSISLDRCARAHAWLAGRDFVSPEDIQAVLFDVLRHRIILSFEAEAAGIDQDRVIQRILDVVAVALEHHHHHH,soluble
